Publication PMC10713658

Molecular target: ABI2 (UniProt Q9NYB9)
Experiment: Flag co-IP, ABI2 Western blot
Settings: reference: wild type, OA-treated; sites S668,T670,S671

GRAF1 (from UniProt Q9UNA1) AAA (S668A/T670A/S671A), OA-treated
binding against the reference: weaker
